Square brackets hold non-standard residues; d marks the D form. Ends that are not written are not given here. pT = C[C@@H](OP(=O)(O)O)[C@H](N)C(=O)O
What follows are sequences tested against HLA-A*02:01 (Homo sapiens, UniProt P04439, D140Y/D185E/D98H/E176V/E277Q/G131W/G231S/I119V/I121R/I166T/I218V/L300P/L318F/N151K/N90K/P208A/P217A/Q86G/Q94H/R138H/R169H/T345S) (assay: MHC binding assay: UV-ligand exchange with β2m ELISA). Conditions: binding to HLA-A*02:01, UV-ligand exchange.
Description: Candidate peptides for T cell based therapies according to the present invention were further tested for their MHC binding capacity (affinity). The individual peptide-MHC complexes were produced by UV-ligand exchange, where a UV-sensitive peptide is cleaved upon UV-irradiation, and exchanged with the peptide of interest as analyzed. Only peptide candidates that can effectively bind and stabilize the peptide-receptive MHC molecules prevent dissociation of the MHC complexes. To determine the yield of the exchange reaction, an ELISA was performed based on the detection of the light chain (β2m) of stabilized MHC complexes. The assay was performed as generally described in Rodenko et al. (Rodenko et al., 2006).
96 well MAXISorp plates (NUNC) were coated over night with 2 ug/ml streptavidin in PBS at room temperature, washed 4× and blocked for 1 h at 37° C. in 2% BSA containing blocking buffer. Refolded HLA-A*02:01/MLA-001 monomers served as standards, covering the range of 15-500 ng/ml. Peptide-MHC monomers of the UV-exchange reaction were diluted 100-fold in blocking buffer. Samples were incubated for 1 h at 37° C., washed four times, incubated with 2 ug/ml HRP conjugated anti-β2m for 1 h at 37° C., washed again and detected with TMB solution that is stopped with […]. Absorption was measured at 450 nm. Candidate peptides that show a high exchange yield (preferably higher than 50%, most preferred higher than 75%) are generally preferred for a generation and production of antibodies or fragments thereof, and/or T cell receptors or fragments thereof, as they show sufficient avidity to the MHC molecules and prevent dissociation of the MHC complexes.

| Sequence | Peptide Exchange (peptide exchange yield) |
| --- | --- |
| ALEAUQLYL (ALEA[pT]QLYL; listed as Homo sapiens) [SEQ ID NO: 29, HLA-A*02 peptide, source gene DEPDC4; U = phospho-threonine] | “+++” (≥50 = +++) |
| ALEEQLHQV (listed as Homo sapiens) [SEQ ID NO: 19, HLA-A*02 peptide, source genes KRT25, KRT28, KRT27] | “++” (≥20% = ++) |
| ALNPVIYTV (listed as Homo sapiens) [SEQ ID NO: 5, HLA-A*02 peptide, source gene DRD4] | “++” (≥20% = ++) |
| ALTALQNYL (listed as Homo sapiens) [SEQ ID NO: 6, HLA-A*02 peptide, source gene TFAP2B] | “+++” (≥50 = +++) |
| FIIPTVATA (listed as Homo sapiens) [SEQ ID NO: 7, HLA-A*02 peptide, source gene ABCC11] | “++++” (≥75% = ++++) |
| FLDEEVKLI (listed as Homo sapiens) [SEQ ID NO: 43, HLA-A*02 peptide, source gene FTL] | “+++” (≥50 = +++) |
| FLSSEAANV (listed as Homo sapiens) [SEQ ID NO: 30, HLA-A*02 peptide, source gene TNFAIP2] | “++” (≥20% = ++) |
| FLVEHVLTL (listed as Homo sapiens) [SEQ ID NO: 42, HLA-A*02 peptide, source gene printed 5LC39A6] | “++++” (≥75% = ++++) |
| FMSKLVPAI (listed as Homo sapiens) [SEQ ID NO: 9, HLA-A*02 peptide, source gene TPRG1] | “+++” (≥50 = +++) |
| FSFPVSVGV (listed as Homo sapiens) [SEQ ID NO: 20, HLA-A*02 peptide, source gene DUSP4] | “+++” (≥50 = +++) |
| GLHSLPPEV (listed as Homo sapiens) [SEQ ID NO: 10, HLA-A*02 peptide, source gene LRRC8E] | “+++” (≥50 = +++) |
| GLLPTSVSPRV (listed as Homo sapiens) [SEQ ID NO: 11, HLA-A*02 peptide, source gene SCUBE2] | “++” (≥20% = ++) |
| GLSYIYNTV (listed as Homo sapiens) [SEQ ID NO: 31, HLA-A*02 peptide, source gene COG6] | “++” (≥20% = ++) |
| GLVATLQSL (listed as Homo sapiens) [SEQ ID NO: 32, HLA-A*02 peptide, source gene IFI6] | “+++” (≥50 = +++) |
| GLVQSLTSI (listed as Homo sapiens) [SEQ ID NO: 8, HLA-A*02 peptide, source gene ABCC11] | “++++” (≥75% = ++++) |
| ILFDVVVFL (listed as Homo sapiens) [SEQ ID NO: 25, HLA-A*02 peptide, source gene C4orf3] | “++” (≥20% = ++) |
| ILTELPPGV (listed as Homo sapiens) [SEQ ID NO: 33, HLA-A*02 peptide, source gene ZNF407] | “++” (≥20% = ++) |

| Sequence | Peptide Exchange (peptide exchange yield) |
| --- | --- |
| KAFPFYNTV (listed as Homo sapiens) [SEQ ID NO: 12, HLA-A*02 peptide, source gene NAIP] | “++” (≥20% = ++) |
| KLLDMELEM (listed as Homo sapiens) [SEQ ID NO: 39, HLA-A*02 peptide, source gene FAH] | “++++” (≥75% = ++++) |
| KLYEGIPVL (listed as Homo sapiens) [SEQ ID NO: 13, HLA-A*02 peptide, source gene NEK10] | “++” (≥20% = ++) |
| KQLELELEV (listed as Homo sapiens) [SEQ ID NO: 14, HLA-A*02 peptide, source gene MUC6] | “+++” (≥50 = +++) |
| LLMUVAGLKL (LLM[pT]VAGLKL; listed as Homo sapiens) [SEQ ID NO: 38, HLA-A*02 peptide, source gene PCNXL3; U = phospho-threonine] | “++++” (≥75% = ++++) |
| SLAEPRVSV (listed as Homo sapiens) [SEQ ID NO: 27, HLA-A*02 peptide, source gene FASN] | “+++” (≥50 = +++) |
| SLAWDVPAA (listed as Homo sapiens) [SEQ ID NO: 26, HLA-A*02 peptide, source gene FASN] | “+++” (≥50 = +++) |
| SLFPSLVVV (listed as Homo sapiens) [SEQ ID NO: 15, HLA-A*02 peptide, source gene PLEC] | “+++” (≥50 = +++) |
| SLFSVPFFL (listed as Homo sapiens) [SEQ ID NO: 28, HLA-A*02 peptide, source gene TM9SF1] | “++++” (≥75% = ++++) |
| SLLSEIQAL (listed as Homo sapiens) [SEQ ID NO: 35, HLA-A*02 peptide, source genes AKAP9, PCNT] | “++++” (≥75% = ++++) |
| SLNDQGYLL (listed as Homo sapiens) [SEQ ID NO: 41, HLA-A*02 peptide, source gene MCM8] | “+++” (≥50 = +++) |
| SLVEGEAVHLA (listed as Homo sapiens) [SEQ ID NO: 4, HLA-A*02 peptide, source genes TFAP2E, TFAP2A, TFAP2B, TFAP2C] | “++” (≥20% = ++) |
| SMMGLLTNL (listed as Homo sapiens) [SEQ ID NO: 16, HLA-A*02 peptide, source gene ESR1] | “++++” (≥75% = ++++) |
| TIASSIEKA (listed as Homo sapiens) [SEQ ID NO: 17, HLA-A*02 peptide, source gene STPG2] | “++” (≥20% = ++) |
| TLLGLAVNV (listed as Homo sapiens) [SEQ ID NO: 36, HLA-A*02 peptide, source gene CHPT1] | “++++” (≥75% = ++++) |
| YILLQSPQL (listed as Homo sapiens) [SEQ ID NO: 18, HLA-A*02 peptide, source gene MUC6] | “++++” (≥75% = ++++) |

From patent US11065314B2, “Peptides and combination of peptides for use in immunotherapy against breast cancer and other cancers” (Immatics Biotechnologies GmbH, priority 2015, dated 2021)
